B1: Progranulin (Homo sapiens), P28799 (parent)
chain: MWTLVSWVALTAGLVAGTRCPDGQFCPVACCLDPGGASYSCCRPLLDKWPTTLSRHLGGPCQVDAHCSAGHSCIFTVSGTSSCCPFPEAVACGDGHHCCPRGFHCSADGRSCFQRSGNNSVGAIQCPDSQFECPDFSTCCVMVDGSWGCCPMPQASCCEDRVHCCPHGAFCDLVHTRCITPTGTHPLAKKLPAQRTNRAVALSSSVMCPDARSRCPDGSTCCELPSGKYGCCPMPNATCCSDHLHCCPQDTVCDLIQSKCLSKENATTDLLTKLPAHTVGDVKCDMEVSCPDGYTCCRLQSGAWGCCPFTQAVCCEDHIHCCPAGFTCDTQKGTCEQGPHQVPWMEKAPAHLSLPDPQALKRDVPCDNVSSCPSSDTCCQLTSGEWGCCPIPEAVCCSDHQHCCPQGYTCVAEGQCQRGSEIVAGLEKMPARRASLSHPRDIGCDQHTSCPVGQTCCPSLGGSWACCQLPHAVCCEDRQHCCPAGYTCNVKARSCEKEVVSAQPATFLARSPHVGVKDVECGEGHFCHDNQTCCRDNRQGWACCPYRQGVCCADRRHCCPAGFRCAARGTKCLRREAPRWDAPLRDPALRQLL
partner: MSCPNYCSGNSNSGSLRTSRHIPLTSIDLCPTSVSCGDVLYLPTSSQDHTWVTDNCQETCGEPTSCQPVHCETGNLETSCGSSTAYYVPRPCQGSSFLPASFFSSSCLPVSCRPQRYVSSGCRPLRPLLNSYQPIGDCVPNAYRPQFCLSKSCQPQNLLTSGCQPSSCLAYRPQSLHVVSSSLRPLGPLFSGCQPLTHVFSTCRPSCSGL
B2: mRNA-decapping enzyme 1A (Homo sapiens), Q9NPI6 (parent)
chain: MEALSRAGQEMSLAALKQHDPYITSIADLTGQVALYTFCPKANQWEKTDIEGTLFVYRRSASPYHGFTIVNRLNMHNLVEPVNKDLEFQLHEPFLLYRNASLSIYSIWFYDKNDCHRIAKLMADVVEEETRRSQQAARDKQSPSQANGCSDHRPIDILEMLSRAKDEYERNQMGDSNISSPGLQPSTQLSNLGSTETLEEMPSGSQDKSAPSGHKHLTVEELFGTSLPKEQPAVVGLDSEEMERLPGDASQKEPNSFLPFPFEQLGGAPQSETLGVPSAAHHSVQPEITTPVLITPASITQSNEKHAPTYTIPLSPVLSPTLPAEAPTAQVPPSLPRNSTMMQAVKTTPRQRSPLLNQPVPELSHASLIANQSPFRAPLNVTNTAGTSLPSVDLLQKLRLTPQHDQIQTQPLGKGAMVASFSPAAGQLATPESFIEPPSKTAAARVAASASLSNMVLAPLQSMQQNQDPEVFVQPKVLSSAIPVAGAPLVTATTTAVSSVLLAPSVFQQTVTRSSDLERKASSPSPLTIGTPESQRKPSIILSKSQLQDTLIHLIKNDSSFLSTLHEVYLQVLTKNKDNHNL
partner: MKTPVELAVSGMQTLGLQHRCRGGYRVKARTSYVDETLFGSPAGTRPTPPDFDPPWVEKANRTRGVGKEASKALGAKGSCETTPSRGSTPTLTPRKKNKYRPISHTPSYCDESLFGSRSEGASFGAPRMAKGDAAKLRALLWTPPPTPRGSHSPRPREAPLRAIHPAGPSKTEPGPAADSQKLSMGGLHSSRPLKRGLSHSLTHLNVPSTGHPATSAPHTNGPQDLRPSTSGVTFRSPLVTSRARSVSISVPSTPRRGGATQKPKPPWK
B3: Low-density lipoprotein receptor class A domain-containing protein 1 (Homo sapiens), Q5T700 (parent)
chain: MNKVFPQGENGYTAAESKAHPGGEAGGGHLCCSRRGACLSASLLLLLATVAALIALVTILGLPSCTPGAQACITLTNRTGFLCHDQRSCIPASGVCDGVRTCTHGEDEDESLCRDVPQSLPHFLVAHCGDPASWIYSDQKCDGTNNCGDCSDELSPVTVCPPCGPGWWRCPSTFFKYCDCIPRHLCRDHVQHCSDWSDEYACPGP
partner: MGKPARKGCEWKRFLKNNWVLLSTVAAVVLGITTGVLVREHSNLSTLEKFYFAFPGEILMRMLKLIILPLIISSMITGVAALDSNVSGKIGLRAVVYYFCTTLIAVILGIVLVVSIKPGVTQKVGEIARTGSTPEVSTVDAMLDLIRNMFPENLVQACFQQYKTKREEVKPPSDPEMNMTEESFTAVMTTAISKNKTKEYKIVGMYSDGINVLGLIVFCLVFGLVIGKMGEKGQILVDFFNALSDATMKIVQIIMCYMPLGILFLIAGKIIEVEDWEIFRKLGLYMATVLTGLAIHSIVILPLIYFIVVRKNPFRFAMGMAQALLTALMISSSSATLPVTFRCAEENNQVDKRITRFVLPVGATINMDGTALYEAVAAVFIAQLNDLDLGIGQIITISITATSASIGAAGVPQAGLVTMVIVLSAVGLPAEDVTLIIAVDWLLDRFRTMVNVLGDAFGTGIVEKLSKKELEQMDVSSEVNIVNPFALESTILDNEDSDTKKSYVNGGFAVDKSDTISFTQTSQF

Variants of: B1
Settings: with kr261_human KRTAP26-1, Q6PEX3

effect of a mutation on the interaction | Variant
with no effect | MWTLVSWVALTAGLVAGTRCPDGQFCPVACCLDPGGASYSCCRPLLDKWPTTLSRHLGGPCQVDAHCSAGHSCIFTVSGTSSCCPFPEAVACGDGHHCCPRGFHCSADGRSCFQRSGNNSVGAIQCPDSQFECPDFSTCCVMVDGSWGCCPMPQASCCEDRVHCCPHGAFCDLVHTRCITPTGTHPLAKKLPAQRTNRAVALSSSVMCPDARSRCPDGSTCCELPSGKYGCCPMPNATCCSDHLHCCPQDTVCDLIQSKCLSKENATTDLLTKLPAHTVGDVKCDMEVSCPDGYTCCRLQSGAWGCCPFTQAVCCEDHIHCCPAGFTCDTQKGTCEQGPHQVPWMEKAPAHLSLPDPQALKRDVPCDNVSSCPSSDTCCQLTSGEWGCCPIPEAVCCSDHQHCCPQGYTCVAEGQCQRGSEIVAGLEKMPARWASLSHPRDIGCDQHTSCPVGQTCCPSLGGSWACCQLPHAVCCEDRQHCCPAGYTCNVKARSCEKEVVSAQPATFLARSPHVGVKDVECGEGHFCHDNQTCCRDNRQGWACCPYRQGVCCADRRHCCPAGFRCAARGTKCLRREAPRWDAPLRDPALRQLL [R433W]
with no effect | MWTLVSWVALTAGLVAGTRCPDGQFCPVACCLDPGGASYSCCRPLLDKWPTTLSRHLGGPCQVDAHCSAGHSCIFTVSGTSSCCPFPEAVACGDGHHCCPRGFHCSADGRSCFQRSGNNSVGAIQCPDSQFECPDFSTCCVMVDGSWGCCPMPQASCCEDRVHCCPHGAFCDLVHTRCITPTGTHPLAKKLPAQRTNRAVALSSSVMCPDARSRCPDGSTCCELPSGKYGCCPMPNATCCSDHLHCCPQDTVCDLIQSKCLSKENATTDLLTKLPAHTVGDVKCDMEVSCPDGYTCCRLQSGAWGCCPFTQAVCCEDHIHCCPAGFTCDTQKGTCEQGPHQVPWMEKAPAHLSLPDPQALKRDVPCDNVSSCPSSDTCCQLTSGEWGCCPIPEAVCCSDHQHCCPQGYTCVAEGQCQRGSEIVAGLEKMPARRASLSHPRDIGCDQHTSCPVGQTCCPSLGGSWACCQLPHAVCCEDRQHCCPAGYTCNVKARSCEKEVVSAQPATFLARSPHVGVKDVECGEGHFCHDNQTCCRENRQGWACCPYRQGVCCADRRHCCPAGFRCAARGTKCLRREAPRWDAPLRDPALRQLL [D536E]
with no effect | MWTLVSWVALTAGLVAGTRCPDGQFCPVACCLDPGGASYSCCRPLLDKWPTTLSRHLGGPCQVDAHCSAGHSCIFTVSGTSSCCPFPEAVACGDGHHCCPRGFHCSADGRSCFQRSGNNSVGAIQCPDSQFECPDFSTCCVMVDGSWGCCPMPQASCCEDRVHCCPHGAFCDLVHTRCITPTGTHPLAKKLPAQRTNRAVALSSSVMCPDARSRCPDGSTCCELPSGKYGCCPMPNATCCSDHLHCCPQDTVCDLIQSKCLSKENATTDLLTKLPAHTVGDVKCDMEVSCPDGYTCCRLQSGAWGCCPFTQAVCCEDHIHCCPAGFTCDTQKGTCEQGPHQVPWMEKAPAHLSLPDPQALKRDVPCDNVSSCPSSDTCCQLTSGEWGCCPIPEAVCCSDHQHCCPQGYTCVAEGQCQRGSEIVAGLEKMPARRASLSHPRDIGCDQHTSCPVGQTCCPSLGGSWACCQLPHAVCCEDRQHCCPAGYTCNVKARSCEKEVVSAQPATFLARSPHVAVKDVECGEGHFCHDNQTCCRDNRQGWACCPYRQGVCCADRRHCCPAGFRCAARGTKCLRREAPRWDAPLRDPALRQLL [G515A]

Variants of: B2
Settings: with rita1_human RITA1, Q96K30

effect of a mutation on the interaction | Variant
with no effect | MEALSRAGQEMSLAALKQHDPYITSIADLTGQVALYTFCPKANQWEKTDIEGTLFVYRRSASPYHGFTIVNRLNMHNLVEPVNKDLEFQLHEPFLLYRNASLSIYSIWFYDKNDCHRIAKLMADVVEEETRRSQQAARDKQSPSQANGCSDHRPIDILEMLSRAKDEYERNQMGDSNISSPGLQPSTQLSNLGSTETLEEMPSGSQDKSAPSGHKHLTVEELFGTSLPKEQPAVVGLDSEEMERLPGDASQKEPNSFLPFPFEQLGGAPQSETLGVPSAAHHSVQPEITTPVLITPASITQSNEKHAPTYTIPLSPVLSPTLPAEAPTAQVTPSLPRNSTMMQAVKTTPRQRSPLLNQPVPELSHASLIANQSPFRAPLNVTNTAGTSLPSVDLLQKLRLTPQHDQIQTQPLGKGAMVASFSPAAGQLATPESFIEPPSKTAAARVAASASLSNMVLAPLQSMQQNQDPEVFVQPKVLSSAIPVAGAPLVTATTTAVSSVLLAPSVFQQTVTRSSDLERKASSPSPLTIGTPESQRKPSIILSKSQLQDTLIHLIKNDSSFLSTLHEVYLQVLTKNKDNHNL [P332T]
with no effect | MEALSRAGQEMSLAALKQHDPYITSIADLTGQVALYTFCPKANQWEKTDIEGTLFVYRRSASPYHGFTIVNRLNMHNLVEPVNKDLEFQLHEPFLLYRNASLSIYSIWFYDKNDCHRIAKLMADVVEEETRRSQQAARDKQSPSQANGCSDHRPIDILEMLSRAKDEYERNQMGDSNISSPGLQPSTQLSNLGSTETLEEMPSGSQDKSAPSGHKHLTVEELFGTSLPKEQPAVVGLDSEEMERLPGDASQKEPNSFLPFPFEQLGGAPQSETLGVPSAAHHSVQPEITTPVLITPASITQSNEKHAPTYTIPLSPVLSPTLPAEAPTAQVPPSLPRNSTMMQAVKTTPRQRSPLLNQPVPELSHASLIANQSPFRAPLNVTNTAGTSLPSVDLLQKLRLTPQHDQIQTQPLGKGAMVASFSPAAGQLATPESFIEPPSKTAAARVAASASLSNMVLAPLQSMQQNQDPEVFVHPKVLSSAIPVAGAPLVTATTTAVSSVLLAPSVFQQTVTRSSDLERKASSPSPLTIGTPESQRKPSIILSKSQLQDTLIHLIKNDSSFLSTLHEVYLQVLTKNKDNHNL [Q474H]

Variants of: B3
Settings: with eaa3_human SLC1A1, P43005

effect of a mutation on the interaction | Variant
with no effect | MNKVFPQGENGYTAAESKAHPGGEAGGGHLCCSRRGACLSASLLLLLATVAALIALVTILGLPSCTPGAQACITLTNRTGFLCHDQRSCIPASGVCDGVRTCTHGEDKDESLCRDVPQSLPHFLVAHCGDPASWIYSDQKCDGTNNCGDCSDELSPVTVCPPCGPGWWRCPSTFFKYCDCIPRHLCRDHVQHCSDWSDEYACPGP [E108K]
with no effect | MNKVFPQGENGYTAAESKAHPGGEAGGGHLCCSRRGACLSASLLLLLATVAALIALVTILGLPSCTPGAQACITLTNRTGFLCHDQRSCIPASGVCDGVRTCTHSEDEDESLCRDVPQSLPHFLVAHCGDPASWIYSDQKCDGTNNCGDCSDELSPVTVCPPCGPGWWRCPSTFFKYCDCIPRHLCRDHVQHCSDWSDEYACPGP [G105S]

— IntAct's records for PubMed 31515488
